{"source": "patent US8614103B2", "about": "“Compositions and methods for treating sphingosine-1-phosphate (S1P) related ocular diseases and conditions” (Lpath, Inc., priority 2006, dated 2013)", "molecules": {"B1": {"name": "LT1002: murine monoclonal antibody to S1P, IgG1 kappa, hybridoma clone 306D326.26 (antibody, listed as Mus sp., V domains shown)", "VH": "QAHLQQSDAELVKPGASVKISCKVSGFIFIDHTIHWMKQRPEQGLEWIGCISPRHDITKYNEMFRGKATLTADKSSTTAYIQVNSLTFEDSAVYFCARGGFYGSTIWFDFWGQGTTLTVS", "VL": "ETTVTQSPASLSMAIGEKVTIRCITTTDIDDDMNWFQQKPGEPPNLLISEGNILRPGVPSRFSSSGYGTDFLFTIENMLSEDVADYYCLQSDNLPFTFGSGTKLEIK"}}, "key": {"HUVECs": {"test_system": "HUVECs", "assay": "HUVEC tube formation on Matrigel", "assay_type": "cell-based, human", "settings": "co-incubated with S1P; GF-reduced Matrigel", "procedure": "Experiments were performed as described by Visentin et al. (Cancer Cell 2006 March; 9(3):225-38)."}, "[1]": {"test_system": "fibroblasts (Swiss 3T3, cardiac fibroblasts, WI-38)", "assay": "S1P-stimulated fibroblast proliferation, migration, collagen expression, myofibroblast differentiation", "assay_type": "cell-based", "settings": "1 μg/mL antibody; 0.1-1 μM S1P", "procedure": "See Example 7, below, for experimental details. […] In these experiments, fibroblasts were serum-starved and then treated with 0, 0.1, 0.5, or 1 μM S1P+/−1 μg/mL SPHINGOMAB for 12-24 hr. […] SPHINGOMAB neutralized each of these S1P effects. SPHINGOMAB reduced perivascular fibrosis in vivo in a murine model of a permanent myocardial infarction (E).\nS1P makes profound contributions to wound healing by activating fibroblast migration, proliferation and collagen production; SPHINGOMAB neutralizes these effects. Several studies using multiple types of fibroblasts confirm S1P's ability to promote wound healing: 1) S1P increased Swiss-3T3 fibroblast proliferation as measured by ^3H-thymidine incorporation using standard methods (FIG. 7A); 2) S1P promoted the migration of cardiac fibroblasts in a standard scratch wound healing assay. […] In each of these assays, SPHINGOMAB neutralized S1P's. It is anticipated that ocular fibroblasts would respond similarly to S1P and SPHINGOMAB."}, "[2]": {"test_system": "ovarian cancer (OVCAR3) cells", "assay": "S1P-induced IL-8 release", "assay_type": "cell-based, human", "settings": "1 uM S1P; 22 hours", "procedure": "FIG. 12 has two panels, A and B, that show data from in vitro cell assays performed using several humanized monoclonal antibody variants. […] As described in Example 16, below, SKOV3 cells were treated for 48 hr. with 500 nM Taxol (Tax) in the presence or absence of 500 nM S1P with huMAbHCLC3 (309), huMAbHCLC5 (308), muMAb S1P (muMAb), or non-specific IgG1 (NS) at a concentration of 1 μg/mL. Values represent means±SEM (n=3) with triplicates run for each data point. “NT” means not treated, and “Veh” stans for vehicle only. […] In the experiments described in detail in Example 16, below, 100,000 OVCAR3 cells/well were starved overnight and 1 uM S1P was added to the culture media alone or pre-incubated with 1 ug/ml of non-specific antibody (NS), pATH201+pATH309 (LC3), pATH201+pATH308 (LC5), pATH207+pATH309 (cysLC3), pATH207+pATH308 (cysLC5), and 0.1 ug/ml (M0.1), 1 ug/ml (M1) or 10 ug/ml (M10) of anti-S1P murine antibody. After 22 hours of incubation, cell supernatants were collected and IL-8 secretion was measured by ELISA using an R&D system Quantikine human CXCL8/IL-8 kit. In the figure “NT” refers to non-treated cells.\nIn parallel, all the variants were tested for their effects on S1P-induced cytokine release from cancer cells. S1P is known to elicit significant release of IL-8 into the cell-conditioned media from cancer cells."}}}
{"molecule": "B1", "values": [{"measurement": "capillary-like structure (tube) formation", "setting": "HUVECs", "value": "failed to form capillary-like structures"}, {"measurement": "effect on S1P-stimulated fibroblast proliferation, migration, collagen expression, myofibroblast differentiation", "setting": "[1]", "value": "neutralized"}, {"measurement": "reduction of S1P-induced IL-8 release", "setting": "[2]", "value": "reduced IL-8 release from ovarian cancer cells in a concentration-dependent manner"}]}
